Target: CblC, full-length, His-tagged (UniProt Q9Y4U1)
Test: native gel or EMSA

Chain of UniProt Q9Y4U1 (Q9Y4U1 whole entry): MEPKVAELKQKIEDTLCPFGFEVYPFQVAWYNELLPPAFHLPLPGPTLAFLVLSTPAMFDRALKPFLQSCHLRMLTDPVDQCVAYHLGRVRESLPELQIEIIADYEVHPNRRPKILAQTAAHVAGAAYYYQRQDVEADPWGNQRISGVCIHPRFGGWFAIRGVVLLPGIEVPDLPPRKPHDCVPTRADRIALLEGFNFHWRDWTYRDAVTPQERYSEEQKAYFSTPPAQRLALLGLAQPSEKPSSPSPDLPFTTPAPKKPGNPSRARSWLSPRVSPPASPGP

Q: How did the stoichiometry N turn out when “full-length CblD, N-terminal 6xHis-tagged (from UniProt Q9H3L0 39-296) (natural protein)” was run?
A: 1 CblC:CblD
